Article PMC11417388, “Trypanosome mRNA recapping is triggered by hypermethylation originating from cap 4” (Nucleic Acids Research, 2024)

B1: TbCe1 (Trypanosoma brucei brucei TREU927) (protein)
chain: MSATDVASELRSGAPEYVPTFLRCKQSENVTAFESPVVFLMFGCRGAGKSTQSTLLSKTYNLLYLSSGDIYKSGKQPFVELRKILNEHFGDGKERVYNGVVLDRFIANSEFEAFYVQTALRSVGLPVPFVFMLAIDQGLAAKRAEERGDNKGGNQRWRAVEQKAQAITANTVYAPIQCLKTIRVESDMTIDDVFNEIKTTIANQLPPDLFNLQLPREARREVEGTVLVEDYELYMELANDVHTVVGNLRGRRDSAPLSNVGAHLDKEYFSFANKRLRSQLTTMHVTLKADGLRFLVMKHKTRGYIGFPSAFTHCYELNDLFEGVEMAPKPYTELKKWMNDKSCELPADFLLDTEVVVHEKKPTLYIIDFIYFWGLDGRRMQFEQRLKVLREYFGDMKPQGQVIAMKDYVPINKIRTLVEEMKRRTELPVDGLIFQHNGSYRFGSDKFLIKWKPVHLCTVDFRLANGRVENGVWTFDLFVTDDFIEENGFREVAYPGATALIPASVVEENGLQNGMIIEMALSEKESVKKTSPNAPSEKTRWTFRNARNDKPSPNKYSIVTRICELMHVDLDELVSLCEKVPFYRNV
notes: expressed as His-Smt3 fusion in E. coli; tag removed by Ulp1; glycerol gradient purified

Legend:
vvD1/D12 = biological target: T1, vvD1/D12 (Vaccinia virus WR, UniProt P04298)
T1 construct: gene OPG113

purified protein = substrate: Nc1ncnc2c1ncn2[C@@H]1O[C@H](COP(=O)(O)OP(=O)(O)OP(=O)(O)O)[C@@H](O)[C@H]1O; assay: purified protein; type: biochemical, Trypanosoma brucei; settings: co-substrate 100 nM fully methylated cap 4 pRNA (p m6,2AmAmCm m3Um), 0.5 mM MgCl2, pH 8.5, 27 °C, labelled compound

| Molecule | cap methyltransferase assay on ppRNA substrates (vvD1/D12) | Km (purified protein) [µM] | kcat (purified protein) [s⁻¹] |
| --- | --- | --- | --- |
| C[S+](CC[C@H](N)C(=O)O)C[C@H]1O[C@@H](n2cnc3c(N)ncnc32)[C@H](O)[C@@H]1O (stereo partly drawn) [AdoMet] | cap methyltransferase activity was compared on ppAmAmCmUm and unmodified ppRNAs |  |  |
| B1 |  | 0.21 | 0.0383 |
